PMC2745981

Molecular target: GFP-tagged GluR1 (ΔL2–3) (UniProt P19490)
Assay: co-IP

Sequence of UniProt P19490 (P19490 19-907, stated change not applied): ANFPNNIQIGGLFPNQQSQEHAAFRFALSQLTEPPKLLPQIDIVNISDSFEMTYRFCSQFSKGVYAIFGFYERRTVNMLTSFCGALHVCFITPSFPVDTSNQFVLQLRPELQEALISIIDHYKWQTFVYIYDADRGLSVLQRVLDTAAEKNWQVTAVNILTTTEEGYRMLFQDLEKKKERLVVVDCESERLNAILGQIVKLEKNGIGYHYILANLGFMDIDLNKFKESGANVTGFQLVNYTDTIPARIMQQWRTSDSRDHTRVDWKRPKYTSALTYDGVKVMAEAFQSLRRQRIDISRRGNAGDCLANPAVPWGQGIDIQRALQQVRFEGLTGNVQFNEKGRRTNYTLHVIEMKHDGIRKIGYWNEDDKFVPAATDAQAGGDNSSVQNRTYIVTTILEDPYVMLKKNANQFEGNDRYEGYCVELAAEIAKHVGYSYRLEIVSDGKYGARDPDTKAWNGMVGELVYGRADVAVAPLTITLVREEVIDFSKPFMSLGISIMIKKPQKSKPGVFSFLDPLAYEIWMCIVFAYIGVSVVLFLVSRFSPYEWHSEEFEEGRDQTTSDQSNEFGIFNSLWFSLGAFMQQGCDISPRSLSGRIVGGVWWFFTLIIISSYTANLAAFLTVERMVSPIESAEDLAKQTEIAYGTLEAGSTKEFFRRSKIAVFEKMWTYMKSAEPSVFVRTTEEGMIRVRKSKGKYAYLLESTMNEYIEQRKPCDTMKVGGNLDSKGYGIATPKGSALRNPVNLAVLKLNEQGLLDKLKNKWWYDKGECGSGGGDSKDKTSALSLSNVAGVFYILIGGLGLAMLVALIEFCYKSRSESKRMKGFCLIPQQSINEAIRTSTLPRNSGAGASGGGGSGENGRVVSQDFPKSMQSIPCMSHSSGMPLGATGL

- interaction, percent of control (wild-type GluR1): 78 % of control
Substance: HA-tagged p62 (from UniProt Q13501 1-440) (natural protein)
